Measured values taken from PMC9714371, “Haemophilus influenzae Protein D antibody suppression in a multi‐component vaccine formulation” (FEBS Open Bio, 2022).
“And” between values parts separate entries of the source, which are not always exact repeats. Identical values can stand only once.

Target: the molecule itself
Experiment: native MS; nano-electrospray native MS with ion mobility (Waters Synapt G2); His-tagged proteins in 200 mM ammonium acetate pH 6.8, 5 μM; PD alone, OMP26 alone, 1:1 mixture

B1: His‐tagged Protein D (non‐lipidated, N‐terminal signal sequence removed) (natural protein)
chain: CSSHSSNMANTQMKSDKIIIAHRGASGYLPEHTLESKALAFAQHSDYLEQDLAMTKDGRLVVIHDHFLDGLTDVAKKFPYRHRKDGRYYVIDFTLKEIQSLEMTENFETKDGKQAQVYPNRFPLWKSHFRIHTFEDEIEFIQGLEKSTGKKVGIYPEIKAPWFHHQNGKDIATETLKVLKKYGYDKKTDMVYLQTFDFNELKRIKTELLPQMGMDLKLVQLIAYTDWKETQEKDPKGYWVNYNYDWMFKPGAMAEVVKYADGVGPGWYMLVNKEESKPDNIVYTPLVKELAQYNVEVHPYTVRKDALPEFFTDVNQMYDALLNKSGATGVFTDFPDTGVEFLKGIK
notes: Gene bought from GenScript, in pET21a; also called PD; His‐tagged PD; source: E. coli BL‐21*, IPTG induced; not shown: His6, N-terminal, kept
stoichiometry N: 2 and 4

B2: His‐tagged outer membrane protein 26 (OMP26) (natural protein)
chain: EEKIAFINAGYIFQHHPDRQAVADKLDAEFKPVAEKLAASKKEVDDKIAAARKKVEAKVAALEKDAPRLRQADIQKRQQEINKLGAAEDAELQKLMQEQDKKVQEFQAQNEKRQAEERGKLLDSIQTATNNLAKAKGYTYVLDANSIVFAVEGKDITEEVLKSIPASEKAQEKK
notes: OMP26, 26-kDa outer membrane protein of Haemophilus influenzae, homolog of E. coli Skp; Gene bought from GenScript; Predominantly trimers by native MS and SEC, with hexamers in low abundance; also called His‐tagged OMP26; source: E. coli BL‐21*, IPTG induced; not shown: His6, N-terminal, kept
stoichiometry N: 3 and 6
